Results from US20210047402A1 (TENEOBIO, published 2021).

T1: human CD22 (human, UniProt P20273 20-687, limits assumed)
T1 construct: also called SIGLEC-2; human CD22 protein
T1 sequence (looked up): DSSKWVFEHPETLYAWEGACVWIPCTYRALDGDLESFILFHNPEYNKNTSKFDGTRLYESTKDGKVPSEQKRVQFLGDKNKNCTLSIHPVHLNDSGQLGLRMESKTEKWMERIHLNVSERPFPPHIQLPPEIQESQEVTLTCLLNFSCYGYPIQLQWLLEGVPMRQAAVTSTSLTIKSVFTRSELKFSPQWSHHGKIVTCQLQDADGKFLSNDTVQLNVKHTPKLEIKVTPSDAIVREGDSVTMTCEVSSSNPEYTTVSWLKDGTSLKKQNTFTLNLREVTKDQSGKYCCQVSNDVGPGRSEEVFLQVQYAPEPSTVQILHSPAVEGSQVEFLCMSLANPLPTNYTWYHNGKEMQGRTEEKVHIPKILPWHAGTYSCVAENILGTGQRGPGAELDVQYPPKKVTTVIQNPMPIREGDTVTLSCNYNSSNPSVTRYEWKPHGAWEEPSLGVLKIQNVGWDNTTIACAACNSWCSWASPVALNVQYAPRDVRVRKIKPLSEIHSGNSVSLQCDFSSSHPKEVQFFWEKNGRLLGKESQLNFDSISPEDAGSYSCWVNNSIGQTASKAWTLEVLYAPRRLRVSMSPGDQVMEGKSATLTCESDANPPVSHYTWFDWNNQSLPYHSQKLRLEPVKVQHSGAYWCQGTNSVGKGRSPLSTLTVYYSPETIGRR

B1: anti-CD22 heavy chain-only antibody Clone ID 335179 (antibody, V domains shown)
VH: QLQLQESGPGLVKPSETLSLTCTVSGGSISSSSYYWGWFRHPPGKGLDWIGSIHYSGSTYYNPSLKSRVTISVDTSRNQFSLNLSSVTAADTAVYYCTRDDSSNWRSRGQGTLVTVSS
notes: Heavy chain-only antibody (UniAb), no light chain
B2: anti-CD22 heavy chain-only antibody Clone ID 335311 (antibody, V domains shown)
VH: QLQLQESGPGLVKPSETLSLTCAVYGGSFSGYYWGWIRQPPGKGLEWIGHIYYSGATYYNPSLKNRVTISVDTSRNQFSLNLSSVTAADTAVYYCTREDSSSWRSRGQGTLVTVSS
notes: as for B1
B3: anti-CD22 heavy chain-only antibody Clone ID 335261 (antibody, V domains shown)
VH: QLQLQESGPGLVKPSETLSLTCTVSGDSISSGDYYWGWIRQPPGKGLEWIGHIYYSGATYYNPSLENRVTISVDTSKNQFSLKLSSVTAADTAVYYCTREDSSSWRSRGQGTLVTVSS
notes: as for B1
B4: anti-CD22 heavy chain-only antibody Clone ID 335271 (antibody, V domains shown)
VH: QLQLQESGPGLVKPSETLSLTCTVSGDSISSGDYYWGWIRHPPGKGLEWIGHIYYSGATYYNPSLKNRVTISVDTSKNQFSLKLSSVTAADTAVYYCTREDSSSWRSRGQGTLVTVSS
notes: as for B1
B5: anti-CD22 heavy chain-only antibody Clone ID 335283 (antibody, V domains shown)
VH: QLQLQESGPGLVKPSETLSLTCTVSGGSISSSSYYWGWIRQPPGKGLEWIGSIYYSGATYYNPSLKNRVTISVDTSKNQFSLKLSSVTAADTAVYYCTREDSSSWRSRGQGTLVTVSS
notes: as for B1
B6: anti-CD22 heavy chain-only antibody Clone ID 335266 (antibody, V domains shown)
VH: QLQLQESGPGLVRPSETLSLTCTVSGGSISSSSYYWGWIRQPPGKGLEWIGSIYYSGSTYYNPSLKSRVTISVDTSKNQFSLKLSSVTAADTAVYYCTREDSSSWRSRGQGTLVTVSS
notes: as for B1
B7: anti-CD22 heavy chain-only antibody Clone ID 335301 (antibody, V domains shown)
VH: QLQLQESGPGLVKPSETLSLTCTVSGDSISSGDYYWGWIRQPPGKGLEWIGNIYYSGATYYNPSLKNRVTISVDTSKNQFSLKLSSVTAADTAVYYCTREDSSSWRSRGQGTLVTVSS
notes: as for B1
B8: anti-CD22 heavy chain-only antibody Clone ID 335274 (antibody, V domains shown)
VH: QLQLQESGPGLVKPSETLSLTCTVSGGSISSSSYYWGWIRQPPGKGLEWIGSIYYSGSTYYNPSLKSRVTISVDTSRNQFSLNLSSVTAADTAVYYCTREDSSSWRSRGQGTLVTVSS
notes: as for B1
B9: anti-CD22 heavy chain-only antibody Clone ID 335316 (antibody, V domains shown)
VH: QLQLQESGPGLVKPSETLSLTCTVSGGSISSSSYYWGWIRQPPGKGLEWIGHIYYSGATYYNPSLKNRVTISVDTSKNQFSLKLSSVTAADTAVYYCTREDSSSWRSRGQGTLVTVSS
notes: as for B1
B10: anti-CD22 heavy chain-only antibody Clone ID 335285 (antibody, V domains shown)
VH: QLQLQESGPGLVKPSETLSLTCTVSGGSISSSSYYWGWIRQPPGKGLEWIGSIYYSGVTYYNPSLKNRVTISVDTSKNQFSLKLSSVTAADTAVYYCTREDSSSWRSRGQGTLVTVSS
notes: as for B1
B11: anti-CD22 heavy chain-only antibody Clone ID 335295 (antibody, V domains shown)
VH: QLQLQESGPGLVKPSETLSLTCTVSGGSISSSSYYWGWIRQPPGKGLEWIGSIYYSGATYYNPSLKNRVTISVDTSRNQFSLNLSSVTAADTAVYYCTREDSSSWRSRGQGTLVTVSS
notes: as for B1
B12: anti-CD22 heavy chain-only antibody Clone ID 335333 (antibody, V domains shown)
VH: QLQLQESGPGLVKPSETLSLTCTVSGGSISSSSYYWGWIRQPPGKGLEWIGSIYYSGSTYYNPSLKSRVTISVDTSKNQFSLKLSSVTAADTAVYYCAREDSSSWRSRGQGTLVTVSS
notes: as for B1
B13: anti-CD22 heavy chain-only antibody Clone ID 335263 (antibody, V domains shown)
VH: QLQLQESGPGLVKPSETLSLTCTVSGGSINDNSHYWGWIRQPPGKGLEWIGHIYYSGATYYNPSLKNRVTISVDTSRNQFSLNLSSVTAADTAVYYCTREDSSSWRSRGQGTLVTVSS
notes: as for B1
B14: anti-CD22 heavy chain-only antibody Clone ID 335297 (antibody, V domains shown)
VH: QLQLQESGPGLVKPSETLSLTCTVSGGSISSSSYYWGWIRQPPGKGLEWIGHIYYSGATYYNPSLKNRVTISVDTSRNQFSLNLSSVTAADTAVYYCTREDSSSWRSRGQGTLVTVSS
notes: as for B1
B15: anti-CD22 heavy chain-only antibody Clone ID 335273 (antibody, V domains shown)
VH: QLQLQESGPGLVKPSETLSLTCTVSGGSISSSSYYWGWIRQPPGKGLEWIGSIYYSGSTYYNPSLKSRVTISVDTSKNQFSLKLSSVTAADTAVYYCTREDSSSWRSRGQGTLVTVSS
notes: as for B1
B16: anti-CD22 heavy chain-only antibody Clone ID 335307 (antibody, V domains shown)
VH: QLQLQESGPGLVKPSETLSLTCTVSGDSISSGDYYWGWIRQPPGKGLEWIGSIYYSGSTYYNPSLKSRVTISVDTSKNQFSLKLSSVTAADTAVYYCTREDSSSWRSRGQGTLVTVSS
notes: as for B1
B17: anti-CD22 heavy chain-only antibody Clone ID 335293 (antibody, V domains shown)
VH: QLQLQESGPGLVKPSETLSLTCTVSGDSISSGDYYWGWIRQPPGKGLEWIGHIYYSGATYYNPSLKNRVTISVDTSRNQFSLKLSSVTAADTAVYYCTREDSSSWRSRGQGTLVTVSS
notes: as for B1
B18: anti-CD22 heavy chain-only antibody Clone ID 335323 (antibody, V domains shown)
VH: QLQLQESGPGLVKPSETLSLTCTVSGDSISSGGYYWGWIRQPPGKGLEWIGSIYYSGSTYYNPSLKNRVTISVDTSKNQFSLKLSSVTAADTAVYYCTREDSSSWRSRGQGTLVTVSS
notes: as for B1

The binders below were run against T1, human CD22 (assay: ELISA protein and cell-binding assays).

Binding result, binds:
B1, B2, B3, B4, B5, B6, B7, B8, B9, B10, B11, B12, B13, B14, B15, B16, B17, B18
